Test results taken from article PMC11718230 (Nature Communications, 2025).

T1: ATTO647N-STX17 SNARE domain (residues 161-231, E198C) (UniProt P56962 161-231, E198C, ATTO647N maleimide conjugated (cysteine introduced by E198C))
T1 sequence (looked up): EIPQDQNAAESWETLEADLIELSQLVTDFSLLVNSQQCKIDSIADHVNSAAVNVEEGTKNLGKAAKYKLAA


Biological target: T1, ATTO647N-STX17 SNARE domain (residues …)
Assay: FRET or BRET

Row | binding result | Binder
1 | binds | ATTO550-VAMP7 SNARE domain (residues 123-187, E152C) (domain or fragment, UniProt P51809 123-187, looked up) LDKVMETQAQVDELKGIMVRNIDLVAQRGC(ATTO550 maleimide)RLELLIDKTENLVDSSVTFKTTSRNLARAMCMKNL
2 | binds | ATTO550-VAMP8 SNARE domain (10-74, E39C) (domain or fragment, UniProt Q9BV40 10-74, looked up) NDRVRNLQSEVEGVKNIMTQNVERILARGC(ATTO550 maleimide)NLEHLRNKTEDLEATSEHFKTTSQKVARKFWWKNV
